B1: AAV2 RGD4C 453 A2 (other)
chain: MAADGYLPDWLEDTLSEGIRQWWKLKPGPPPPKPAERHKDDSRGLVLPGYKYLGPFNGLDKGEPVNEADAAALEHDKAYDRQLDSGDNPYLKYNHADAEFQERLKEDTSFGGNLGRAVFQAKKRVLEPLGLVEEPVKTAPGKKRPVEHSPVEPDSSSGTGKAGQQPARKRLNFGQTGDADSVPDPQPLGQPPAAPSGLGTNTMATGSGAPMADNNEGADGVGNSSGNWHCDSTWMGDRVITTSTRTWALPTYNNHLYKQISSQSGASNDNHYFGYSTPWGYFDFNRFHCHFSPRDWQRLINNNWGFRPKRLNFKLFNIQVKEVTQNDGTTTIANNLTSTVQVFTDSEYQLPYVLGSAHQGCLPPFPADVFMVPQYGYLTLNNGSQAVGRSSFYCLEYFPSQMLRTGNNFTFSYTFEDVPFHSSYAHSQSLDRLMNPLIDQYLYYLSRTNTPSGACDCRGDCFCATTTQSRLQFSQAGASDIRDQSRNWLPGPCYRQQRVSKTSADNNNSEYSWTGATKYHLNGRDSLVNPGPAMASHKDDEEKFFPQSGVLIFGKQGSEKTNVDIEKVMITDEEEIRTTNPVATEQYGSVSTNLQAGNAQAATADVNTQGVLPGMVWQDRDVYLQGPIWAKIPHTDGHFHPSPLMGGFGLKHPPPQILIKNTPVPANPSTTFSAAKFASFITQYSTGQVSVEIEWELQKENSKRWNPEIQYTSNYNKSVNVDFTVDTNGVYSEPRPIGTRYLTRNL
notes: Capsid particle of VP-1, VP-2 and VP-3; substitution positions count on wild-type AAV2 VP-1

Experiments:
[1] = molecular target: AAV-amyloid-453-587 (AAV2; human) (UniProt P03135)
[2] = molecular target: T1, purified αvβ3 integrin (CHEMICON) (UniProt P06756 31-1048; P05106 27-788); assay: A20-capture ELISA, purified αvβ3 integrin 100 ng/well, normalised to A20-biot
T1 construct: also called soluble αvβ3; soluble receptor αvβ3
T1 sequence (P06756 31-1048, chain 1 of 2): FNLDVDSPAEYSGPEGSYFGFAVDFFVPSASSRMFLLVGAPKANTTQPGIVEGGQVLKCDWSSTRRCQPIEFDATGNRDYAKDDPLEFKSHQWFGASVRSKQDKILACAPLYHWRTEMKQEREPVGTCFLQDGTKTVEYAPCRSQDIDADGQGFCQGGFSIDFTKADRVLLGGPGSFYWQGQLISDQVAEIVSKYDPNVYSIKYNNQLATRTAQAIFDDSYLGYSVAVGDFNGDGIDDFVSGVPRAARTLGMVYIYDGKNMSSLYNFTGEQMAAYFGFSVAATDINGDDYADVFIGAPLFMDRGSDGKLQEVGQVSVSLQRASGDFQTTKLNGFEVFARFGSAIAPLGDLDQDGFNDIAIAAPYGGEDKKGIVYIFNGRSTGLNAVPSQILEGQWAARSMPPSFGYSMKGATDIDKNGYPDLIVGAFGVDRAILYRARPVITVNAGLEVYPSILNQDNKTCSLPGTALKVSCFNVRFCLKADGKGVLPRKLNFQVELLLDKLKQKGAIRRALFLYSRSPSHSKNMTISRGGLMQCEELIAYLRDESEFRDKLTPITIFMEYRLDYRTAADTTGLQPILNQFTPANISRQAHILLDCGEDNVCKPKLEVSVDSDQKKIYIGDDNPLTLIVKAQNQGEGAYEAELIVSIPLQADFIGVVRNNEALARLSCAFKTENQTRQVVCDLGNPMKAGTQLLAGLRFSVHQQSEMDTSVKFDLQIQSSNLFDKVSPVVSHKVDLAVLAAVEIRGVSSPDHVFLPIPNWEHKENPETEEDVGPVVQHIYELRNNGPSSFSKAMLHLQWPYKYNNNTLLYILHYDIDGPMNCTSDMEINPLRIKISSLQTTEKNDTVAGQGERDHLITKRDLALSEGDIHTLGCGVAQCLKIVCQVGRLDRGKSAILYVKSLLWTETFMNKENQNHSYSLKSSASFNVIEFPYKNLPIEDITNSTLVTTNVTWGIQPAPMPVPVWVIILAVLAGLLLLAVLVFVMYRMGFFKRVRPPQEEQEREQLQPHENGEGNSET
T1 sequence (P05106 27-788, chain 2 of 2): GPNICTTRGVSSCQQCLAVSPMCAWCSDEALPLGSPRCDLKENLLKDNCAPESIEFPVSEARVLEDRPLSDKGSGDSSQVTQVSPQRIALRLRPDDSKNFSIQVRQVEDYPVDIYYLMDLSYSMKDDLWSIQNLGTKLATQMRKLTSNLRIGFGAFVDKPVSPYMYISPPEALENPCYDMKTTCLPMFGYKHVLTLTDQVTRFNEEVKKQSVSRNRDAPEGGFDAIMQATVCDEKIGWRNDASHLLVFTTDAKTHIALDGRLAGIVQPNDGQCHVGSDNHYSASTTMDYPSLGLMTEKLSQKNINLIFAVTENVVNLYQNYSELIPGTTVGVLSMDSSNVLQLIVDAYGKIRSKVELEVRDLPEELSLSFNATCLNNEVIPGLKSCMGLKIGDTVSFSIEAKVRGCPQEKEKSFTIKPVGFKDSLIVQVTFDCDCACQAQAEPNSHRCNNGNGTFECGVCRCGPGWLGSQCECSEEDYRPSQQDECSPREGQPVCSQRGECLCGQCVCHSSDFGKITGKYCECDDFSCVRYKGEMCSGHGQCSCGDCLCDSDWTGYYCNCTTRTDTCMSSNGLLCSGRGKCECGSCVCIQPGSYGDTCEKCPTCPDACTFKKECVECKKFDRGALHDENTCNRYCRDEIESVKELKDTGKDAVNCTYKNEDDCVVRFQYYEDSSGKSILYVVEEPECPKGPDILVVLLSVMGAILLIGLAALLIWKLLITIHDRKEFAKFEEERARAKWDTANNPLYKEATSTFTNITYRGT

Molecule	fold higher affinity against the I-587-insertion mutant [1] [fold]	fold increase of binding activity against RGD4C 453 [2] [fold]
anti-β-amyloid mAb 6E10 (CHEMICON) (antibody)	2	
B1		~50

Source: patent publication US20130108658A1 (published 2013)
